# Patent EP0556111A1
# Tests used:
# [1] = target: reagent Mα2-3/peroxidase, obtained by classical chemical coupling
# [2] = target: hybrid F(ab)₂-PhoA (complex hybrid protein alkaline phosphatase/F(ab)₂ of antibody Mα2-3) (E. coli) [phosphatase: P00634]
substance,measurement,setting,value
toxin alpha (from UniProt P01426),IC50,[1],0.009 µM
same,IC50,[2],0.02 µM
